This note sets out measurements from article PMC3156124.

Assay [1] concerns the target GEP100 (UniProt Q6DN90). The assay is described as follows: anti-HA (GEP100) IP, anti-V5 (VEGFR2) blot. The conditions noted are these: reference: wild type VEGFR2-V5; sites Y951.
The target in assay [2] is GEP100 PH domain (UniProt Q6DN90). Nature of the assay: peptide dot-blot overlaid with GST-PH. The conditions noted are these: reference: non-phosphorylated Tyr951 peptide; sites Y951.

As to VEGFR2 (from UniProt P35968) 951F, the “binding against the reference” value in assay [1] was “lost”.
In the case of “VEGFR2 Tyr951 peptide (from UniProt P35968) pY951 peptide”, the “binding against the reference” value in assay [2] is reported as “gained”.
